Patent publication US20210206847A1

Molecular target: biotin-labeled soluble FcRn protein (UniProt P55899)
Test: SPR; pH 6.0

Sequence of biotin-labeled soluble FcRn protein (P55899 24-297, chain 1 of 2): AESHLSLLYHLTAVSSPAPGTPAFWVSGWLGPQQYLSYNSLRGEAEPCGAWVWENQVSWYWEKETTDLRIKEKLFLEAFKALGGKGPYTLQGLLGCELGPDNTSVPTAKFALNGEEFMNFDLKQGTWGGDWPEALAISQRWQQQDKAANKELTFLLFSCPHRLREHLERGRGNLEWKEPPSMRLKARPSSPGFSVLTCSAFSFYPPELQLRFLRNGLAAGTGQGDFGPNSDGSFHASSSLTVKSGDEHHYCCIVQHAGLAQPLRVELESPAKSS
Sequence of biotin-labeled soluble FcRn protein (main, as listed by the source, chain 2 of 2): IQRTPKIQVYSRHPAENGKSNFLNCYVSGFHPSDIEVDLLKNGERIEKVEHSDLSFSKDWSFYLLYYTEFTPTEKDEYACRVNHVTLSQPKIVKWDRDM

Row | Substance | Kd
1 | novel IgG1 Fc monomer (sFc) (from UniProt P0DOX5 233-449) | 0.106 µM
2 | 1-B10-9 (from UniProt P0DOX5 233-449) | 0.119 µM
